Test results: the supplement of paper PMC10201428
± gives the standard deviation of the averaged measurements.

B1: library; a variant is named by its letters at N, in order (parent)
chain: AATGTTGTTGATGCAACCATAAAGTGATATTTAATAATTATTTATAATCAGCAACTTAACCACAAAACAACCATATATTGATATNTCACAAAACAACCATAANTTGATATTTTTGTGAATCGAGTATTTCAGCAAAACTACTGCAGTAAGAA

Columns and labels:
[1] = variants of: B1; test: relative integration efficiency (T-LR orientation) vs wild-type transposon end (log2 (normalized fold change)); transposon end mutated: left end; higher = more efficient transposition; conditions: with VchCAST RNA-guided transposition machinery (E. coli BL21(DE3) host, lacZ target)
Summary of the method: (§1)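 Co-transformation of E. coli BL21(DE3) combined a pUC57 mini-transposon donor, holding barcoded pools of 1549 left-end or 1849 right-end variants, with a T7-driven plasmid encoding a CRISPR array, tniQ-cas8-cas7-cas6 and tnsA-tnsB-tnsC. After plating with 0.1 mM IPTG at 37°C for 18 h, input plasmids and genomic integration junctions were PCR-amplified and Illumina-sequenced across two biological output replicates, with four reference barcodes. Relative integration efficiency is the normalised, log-transformed output/input barcode fold change.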

[2] = variants of: B1; test: relative integration efficiency (T-RL orientation) vs wild-type transposon end (log2 (normalized fold change)); transposon end mutated: left end; higher = more efficient transposition; conditions: with VchCAST RNA-guided transposition machinery (E. coli BL21(DE3) host, lacZ target)
Summary of the method: as §1

Variant | relative integration efficiency (log2) [1] | relative integration efficiency (log2) [2]
CC T104A T105A G106C | -2.2109 ± 0.0012 | -1.71 ± 0.67
CG T8A T9A G10C A11T | < -10 | -6.573 ± 0.021
TA A23G G24T A33T T76A T78A T84A C87A T104G T113A | 0.315 ± 0.39 | -0.265 ± 0.4
TA A16C G24T T32G A33C T76A A77G C87T A96C T110A T113A | -1.08 ± 1.6 | -0.54 ± 0.44
CG C97A C98A A99C T100G | -1.52 ± 0.82 | -2.58 ± 1
CG A118G | -0.0561 ± 0.73 | -0.144 ± 0.097
CG A40C T41G T42G T43G | -0.1 ± 0.062 | 0.139 ± 0.11
CG T48G C49A A50C G51T C52A A53C A54C C55A T56G T57G A58C | -3.04 ± 1.4 | -2.79 ± 0.63
TA A22T G24T T31C A33C A70C T76A T84A C87A A96C T112G T113C | -0.665 ± 0.33 | -0.334 ± 0.36
CG T104A T105A G106C A107T | -1.39 ± 0.94 | -2.04 ± 0.73
CG G24C T78A T104A | -0.403 ± 0.24 | -0.396 ± 0.19
CG A66C A67C C68A A69C | -0.943 ± 0.25 | -0.685 ± 0.37
TA A16C G24T T30A A70C T76A T86G A102T T111C T113C | -0.48 ± 1.4 | -0.134 ± 0.32
CG A83G | 0.426 ± 0.3 | 0.00989 ± 0.23
CG A70T C71G | -0.292 ± 0.66 | -0.898 ± 0.41
TA A16C G24T T30A A70C T76A T84A C87A A96C T112G T113C | -0.489 ± 0.88 | 0.259 ± 0.14
CG A90T A91T A92T A93T | -0.429 ± 0.24 | -0.557 ± 0.36
CG C55G T56A T57A A58T | -2.28 ± 0.67 | -0.983 ± 0.39
CG T32G A33C T86G C87A T112G T113G | -0.849 ± 0.54 | -0.843 ± 0.24
GG A83T T84A T86A | -0.405 ± 0.36 | -0.604 ± 0.36

Variant | relative integration efficiency (log2) [1] | relative integration efficiency (log2) [2]
CG G24C T25A | -0.543 ± 0.54 | -0.605 ± 0.37
CG G26T A27C T28G A29C | -1.37 ± 0.4 | -1.9 ± 1.2
TG A16C G24T T32G A33C A70C T76A T86G | -0.468 ± 0.42 | -0.731 ± 0.36
AG T86G C87A A88C | 0.0813 ± 0.34 | -0.158 ± 0.041
CG T43G | -0.00931 ± 0.27 | -0.28 ± 0.043
TA G24A T30A A70C T76A T86G T104G T113A | -0.0684 ± 0.51 | -0.533 ± 0.11
CG A23G G24T A33T | 0.0764 ± 0.17 | -0.108 ± 0.099
CA A96C T110A T113A | 0.444 ± 0.43 | 0.00902 ± 0.34
CG C17A C18A A19C T20G | -3.01 ± 0.42 | -2.69 ± 0.85
CG T39A A40T | 0.255 ± 0.22 | 0.244 ± 0.039
TA A16C G24T T30A T76A T78A T84A C87A T104A T110A T113A | 0.114 ± 0.83 | -0.0645 ± 0.35
CG G117T A118C A119C T120G | 0.0571 ± 0.28 | 0.0586 ± 0.085
CG A81C T82G | -1.43 ± 0.033 | -0.963 ± 0.26
CG G13C C14G | -0.831 ± 0.62 | -0.232 ± 0.36
CA G24A T30A A96C T110A T113A | -0.0456 ± 0.31 | -0.302 ± 0.28
CG T30A T31A T32A A33T | -0.351 ± 0.54 | -0.346 ± 0.29
CG A40T T41A | -0.491 ± 0.97 | -0.0047 ± 0.075
TA A22T G24T T31C A33C A70C T76A T86G A96C T110A T113A | 0.00776 ± 0.18 | -0.657 ± 0.25
CT A22C A23C G24T T76G A77C T78G A102C T104G | -4.26 ± 1.6 | -3.88 ± 1.4
CG T108A | -1.1 ± 0.37 | -0.257 ± 0.48

Variant | relative integration efficiency (log2) [1] | relative integration efficiency (log2) [2]
TA A23G G24T A33T A70C T76A T86G T104A T110A T113A | -0.032 ± 0.14 | -0.568 ± 0.3
TG A23G G24T A33T T76A T78A T84A C87A | 0.325 ± 0.22 | 0.0428 ± 0.34
CG T20G A21C | -2.47 ± 0.87 | -2.18 ± 0.77
TA A23G G24T A33T T76A T78A T84A C87A A102T T111C T113C | -0.26 ± 0.5 | 0.131 ± 0.23
CG G51C C52G A53T A54T | -0.796 ± 0.93 | -0.34 ± 0.37
CG A99T T100A | -1.17 ± 0.8 | -1.19 ± 0.47
CG A93C C94A A95C A96C | -0.979 ± 1.9 | -1.09 ± 0.56
TA A22T G24T T31C A33C T76A T78G C87A A96C T112G T113C | -0.491 ± 0.49 | -0.16 ± 0.22
CG A16T A70T A96T | -1.37 ± 0.86 | -0.887 ± 0.43
CG A16C C17A C18A A19C | -3.65 ± 3.1 | -2.24 ± 0.77
CG T110G | -0.561 ± 0.13 | -0.516 ± 0.25
TA A22T G24T T31C A33C A70C T76A T86G A102T T111C T113C | -0.793 ± 0.32 | -0.813 ± 0.39
CG A65T | 0.125 ± 0.051 | 0.0807 ± 0.096
CG C17A | 0.131 ± 0.49 | 0.0401 ± 0.23
CG C61A | 0.321 ± 0.14 | 0.0593 ± 0.091
TA T76A T78G C87A A102T T111C T113C | -0.0555 ± 0.34 | -0.0993 ± 0.033
CG A16C G24T T32G A33C | -0.475 ± 0.83 | -0.332 ± 0.18
CG A70C C71A | -1.75 ± 1.2 | -1.24 ± 0.54
